Measurements: EP2908837B1 (Vect-Horus, dated 2014)
Blank lines part the entries; values can stand above or below the binder they belong to.

What was measured:
[1] = target: mouse LDLR (in vivo, wild-type against LDLR -/- mice) (mouse, UniProt P35951 22-862); experiment: cell-based or functional assay
[2] = target: T1, Fc alone (human Fc fragment of an IgG1 antibody) (human, UniProt P01857-1 104-330 = IgG part, limits assumed); experiment: pulse-chase immunocytochemistry on CHO-hLDLR-GFP cells, anti-human Fc antibody Alexa 594
T1 construct: domain: Fc fragment; Negative control

mouse LDLR (in vivo, wild-type against LDLR -/- mice), sequence (P35951 22-862): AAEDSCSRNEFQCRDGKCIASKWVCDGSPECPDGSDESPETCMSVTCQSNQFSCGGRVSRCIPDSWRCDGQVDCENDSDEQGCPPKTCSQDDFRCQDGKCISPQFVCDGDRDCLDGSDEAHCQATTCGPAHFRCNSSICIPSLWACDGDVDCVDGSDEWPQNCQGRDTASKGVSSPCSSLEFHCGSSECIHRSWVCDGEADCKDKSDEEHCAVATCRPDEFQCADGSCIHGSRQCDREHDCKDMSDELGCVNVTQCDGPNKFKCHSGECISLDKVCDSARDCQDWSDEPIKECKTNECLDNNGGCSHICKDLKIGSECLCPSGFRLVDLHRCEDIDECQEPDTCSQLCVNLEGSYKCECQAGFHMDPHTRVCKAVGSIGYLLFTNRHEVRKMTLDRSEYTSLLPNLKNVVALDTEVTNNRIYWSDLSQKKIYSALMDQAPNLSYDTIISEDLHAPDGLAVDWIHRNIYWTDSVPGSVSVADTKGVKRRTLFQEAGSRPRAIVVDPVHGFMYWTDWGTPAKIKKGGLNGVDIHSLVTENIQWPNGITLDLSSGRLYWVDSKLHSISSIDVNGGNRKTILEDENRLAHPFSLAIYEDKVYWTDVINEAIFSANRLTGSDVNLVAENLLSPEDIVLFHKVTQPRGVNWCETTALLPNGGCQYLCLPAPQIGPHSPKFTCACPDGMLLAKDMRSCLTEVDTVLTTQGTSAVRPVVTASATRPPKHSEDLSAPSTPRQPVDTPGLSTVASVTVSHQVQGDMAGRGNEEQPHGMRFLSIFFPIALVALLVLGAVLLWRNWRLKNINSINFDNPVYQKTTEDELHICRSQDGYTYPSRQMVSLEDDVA

decrease in peptide concentration in the adrenal glands of LDLR-/- (KO) mice compared to wild-type mice, tritium-labelled peptide, 10 min after i.v. injection [1]: ~3.4 fold | decrease in peptide concentration in the intestine of LDLR-/- (KO) mice compared to wild-type mice, tritium-labelled peptide, 10 min after i.v. injection [1]: ~3.6 fold | decrease in peptide concentration in the liver of LDLR-/- (KO) mice compared to wild-type mice, tritium-labelled peptide, 10 min after i.v. injection [1]: ~4 fold
B1: peptide SEQ ID NO: 1, (D)-Cys-Met-Thz-Arg-Leu-Arg-Gly-Pen (peptide)
peptide: XMXRLRGX
modifications: (D)-Cys at 1, Thz (thiazolidine-4-carboxylic acid) at 3, Pen (penicillamine) at 8; cyclised by a disulfide bridge

binding result [2]: no binding (tested: 5 nM)
B2: hLDLR fused to GFP, on CHO-hLDLR-GFP cells (receptor)
chain: not shown
notes: whole, on cells; also called CHO-LDLR-GFP; not shown: GFP fused in the C-term position
